Reference: patent publication US20240148866A1 (DENALI THERAPEUTICS, published 2024)

What was measured:
[1] = target: T1, apical domain of human transferrin receptor (hTfR^apical) (human, UniProt P02786 198-378); test: SPR (Biacore T200), IgG:IDS captured on Protein A chip, hTfR apical domain injected, single-cycle kinetics
T1 construct: also called apical domain of hTfR
Experimental: (§1) The affinity of IgG:IDS for human transferrin receptor (hTfR) was determined by surface plasmon resonance on a Biacore™ T200 instrument using two methods, similar to previously described (Kariolis et al. 2020. Sci Transl Med 12(545):eaay1359). In Method 1, to evaluate monovalent TfR binding affinity, IgG:IDS was captured on a Protein A-coated Biacore™ Series S CM5 sensor chip and serial dilutions of the apical domain of hTfR (hTfR^apical) were injected over the captured sample. In Method 2, for evaluation of apparent hTfR binding affinity of IgG:IDS, biotinylated full-length hTfR was immobilized on a streptavidin-coated CM5 sensor chip, followed by injection of serial dilutions of IgG:IDS. For both methods, the single-cycle kinetics mode was used for sample injection (association time, 90 s; dissociation time, 600 s), and binding affinities were calculated using Biacore T200 Evaluation Software v3.0.

[2] = target: T2, biotinylated full-length human transferrin receptor (hTfR) (human, UniProt P02786 89-760, limits assumed, biotinylated (site not stated)); test: SPR (Biacore T200), biotinylated full-length hTfR on streptavidin chip, IgG:IDS injected, single-cycle kinetics; apparent (avid) affinity
T2 construct: Printed as 'biotinylated full-length hTfR', immobilized on a streptavidin chip; also called full-length hTfR; full-length receptor
Experimental: as §1

[3] = target: T3, Fc fusion of the 9th domain of human cation independent mannose-6-phosphate receptor (ciM6PR; Uniprot P11717) (human, UniProt P11717 1225-1363, limits assumed); test: ELISA: plate coated with the Fc fusion of ciM6PR domain 9, IgG:IDS titrated, detection with biotinylated anti-IDS antibody and streptavidin-HRP, A450
T3 construct: domain: 9th domain; It was coated on ELISA plates at 1 ug/mL
Experimental: ELISA plates were coated with an Fc fusion of the 9th domain of human cation independent mannose-6-phosphate receptor (ciM6PR; Uniprot P11717) at 1 μg/mL in PBS overnight at 4° C. The following day, the plate was washed three times with wash buffer (PBS with 0.02% Tween-20) and blocking buffer (PBS with 0.02% Tween-20 and 5% BSA) was added to each well. Blocking was carried out for 1 hour at room temperature after which the plate was washed three times, and IgG:IDS was added to the first column of the plate at a concentration of 25 nM. A 3-fold serial dilution was performed across the plate. Primary incubation of the binding reactions was carried out for one hour at room temperature. After binding, the plate was washed three times, and binding was detected using biotinylated anti-IDS antibody diluted to 0.0625 μg/mL in sample buffer. The plate was incubated with a detection antibody for one hour at room temperature and then washed three times. Streptavidin-HRP, diluted 1:50,000 in sample buffer, was then added to each well. The plate was incubated for 30 minutes at room temperature and then washed three times. The ELISA was developed using TMB reagent. The ELISA plate was read on a HighRes BioTek Synergy plate reader, where the absorbance at 450 nm was recorded.

T2 sequence (P02786 89-760 limits assumed): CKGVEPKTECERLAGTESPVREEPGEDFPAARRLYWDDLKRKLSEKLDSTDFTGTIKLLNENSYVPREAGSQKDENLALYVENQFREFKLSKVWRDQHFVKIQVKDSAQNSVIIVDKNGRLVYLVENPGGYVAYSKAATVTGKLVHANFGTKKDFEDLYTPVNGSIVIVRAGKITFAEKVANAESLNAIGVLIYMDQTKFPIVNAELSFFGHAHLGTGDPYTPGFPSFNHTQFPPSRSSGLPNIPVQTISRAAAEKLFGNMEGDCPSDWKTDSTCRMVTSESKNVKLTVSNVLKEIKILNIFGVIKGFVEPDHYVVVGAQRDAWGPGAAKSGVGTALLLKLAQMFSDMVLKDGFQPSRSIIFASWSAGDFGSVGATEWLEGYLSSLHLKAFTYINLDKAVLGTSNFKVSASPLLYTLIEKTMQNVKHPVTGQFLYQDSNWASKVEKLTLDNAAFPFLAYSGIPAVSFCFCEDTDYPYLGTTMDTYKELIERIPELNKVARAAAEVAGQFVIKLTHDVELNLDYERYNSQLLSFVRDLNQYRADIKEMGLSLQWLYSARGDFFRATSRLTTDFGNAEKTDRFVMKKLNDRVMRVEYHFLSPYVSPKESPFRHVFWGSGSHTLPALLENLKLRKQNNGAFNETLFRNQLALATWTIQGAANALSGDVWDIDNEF
T3 sequence (P11717 1225-1363 limits assumed, one chain of several): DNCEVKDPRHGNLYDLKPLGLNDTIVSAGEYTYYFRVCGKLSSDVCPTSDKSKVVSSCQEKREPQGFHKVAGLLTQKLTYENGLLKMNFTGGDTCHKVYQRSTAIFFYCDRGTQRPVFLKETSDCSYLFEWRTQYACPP
T1 sequence (P02786 198-378 limits assumed): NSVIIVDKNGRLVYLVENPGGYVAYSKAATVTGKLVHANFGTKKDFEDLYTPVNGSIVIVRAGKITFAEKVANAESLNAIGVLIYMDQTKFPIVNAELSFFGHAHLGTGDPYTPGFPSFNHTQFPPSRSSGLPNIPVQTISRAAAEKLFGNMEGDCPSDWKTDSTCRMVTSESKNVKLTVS

Kd [1]: 2.6 nM
Kd [2]: ~0.1 nM
EC50 (read off the curve) [3]: ~0.08 nM
B1: IgG:IDS fusion protein (anti-transferrin receptor antibody with an IDS enzyme linked to the C-terminus of each heavy chain) (antibody)
heavy: not shown
light: DIVMTQTPLSLSVTPGQPASISCRSSQSLVHSNGNTYLHWYLQKPGQSPQLLIYKVSNRFSGVPDRFSGSGSGTDFTLKISRVEAEDVGVYYCSQSTHVPWTFGQGTKVEIKRTVAAPSVFIFPPSDEQLKSGTASVVCLLNNFYPREAKVQWKVDNALQSGNSQESVTEQDSKDSTYSLSSTLTLSKADYEKHKVYACEVTHQGLSSPVTKSFNRGEC
modifications: formylglycine (fG) in place of the Cys in the IDS part in the form given as SEQ ID NO:18; glycans carry about 1.5-2.3 mol/mol M6P and about 15-16 mol/mol sialic acid per fusion protein
notes: Antibody-enzyme fusion with human IgG1 constant regions, expressed in ExpiCHO cells co-transfected with SUMF1
